Assay results taken from article PMC7917791.

Target: HAP1 phage capsid (T4 phage mutant with a nonsense mutation in the hoc gene, no functional Hoc protein on the capsid) (T4 phage (mutant HAP1))
Assay: SEC; RFP-Hoc and new HAP1 virions produced together in infected E. coli; filtered lysate on Sepharose 4B (2.5 x 95 cm), 0.063 M phosphate buffer pH 7.2, 0.3 mL/min; phages eluted in the highest molecular weight fraction (A), non-incorporated RFP-Hoc in fraction B; fluorescence and titer of the fractions measured

Chain of RFP-Hoc fusion (red fluorescent protein fused to the N-terminal end of the T4 phage Hoc protein) (P18056 whole entry, the tested form may be a part): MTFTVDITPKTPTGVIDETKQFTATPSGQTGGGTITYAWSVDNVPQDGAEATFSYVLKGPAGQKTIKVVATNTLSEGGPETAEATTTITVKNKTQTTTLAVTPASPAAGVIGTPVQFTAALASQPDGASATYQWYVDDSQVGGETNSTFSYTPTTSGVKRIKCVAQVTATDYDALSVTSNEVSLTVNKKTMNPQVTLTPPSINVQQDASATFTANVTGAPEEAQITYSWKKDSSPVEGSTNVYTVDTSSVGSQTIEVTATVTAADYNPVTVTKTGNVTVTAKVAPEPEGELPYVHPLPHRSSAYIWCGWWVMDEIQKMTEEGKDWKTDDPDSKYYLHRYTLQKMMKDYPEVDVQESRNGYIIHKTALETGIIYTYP

Question: Which fluorescence of the phage fraction A after size exclusion chromatography does the source give for “RFP-Hoc fusion (red fluorescent protein fused to the N-terminal end of the T4 phage Hoc protein) (from UniProt P18056 1-376) (natural protein)” here?
Answer: 5.12e+06 a.u.
